Measured values: patent US20100323906

Tested on: XhoI
Assay: cleavage_in_vitro
Details: 5'-dithiol on upper strand, tethered to 20 nm Au nanoparticle; rate constant at 3.5 nM enzyme (1.5e-3 s-1 at 350 pM); Mg2+ required, inhibited by 10 mM EDTA

Sequence: AAAGGATCCAAGCTTGAATTCCTCGAGAGATCTGTCGACGATATCGGTACCAAA (double strand) [54-bp ruler dsDNA]
- activity: 0.0058 s⁻¹
